Values quoted from earlier work as cited in paper PMC6899468.

Target: neuropilin-1 (Homo sapiens) (UniProt O14786)
Chain of UniProt O14786 (O14786 22-856): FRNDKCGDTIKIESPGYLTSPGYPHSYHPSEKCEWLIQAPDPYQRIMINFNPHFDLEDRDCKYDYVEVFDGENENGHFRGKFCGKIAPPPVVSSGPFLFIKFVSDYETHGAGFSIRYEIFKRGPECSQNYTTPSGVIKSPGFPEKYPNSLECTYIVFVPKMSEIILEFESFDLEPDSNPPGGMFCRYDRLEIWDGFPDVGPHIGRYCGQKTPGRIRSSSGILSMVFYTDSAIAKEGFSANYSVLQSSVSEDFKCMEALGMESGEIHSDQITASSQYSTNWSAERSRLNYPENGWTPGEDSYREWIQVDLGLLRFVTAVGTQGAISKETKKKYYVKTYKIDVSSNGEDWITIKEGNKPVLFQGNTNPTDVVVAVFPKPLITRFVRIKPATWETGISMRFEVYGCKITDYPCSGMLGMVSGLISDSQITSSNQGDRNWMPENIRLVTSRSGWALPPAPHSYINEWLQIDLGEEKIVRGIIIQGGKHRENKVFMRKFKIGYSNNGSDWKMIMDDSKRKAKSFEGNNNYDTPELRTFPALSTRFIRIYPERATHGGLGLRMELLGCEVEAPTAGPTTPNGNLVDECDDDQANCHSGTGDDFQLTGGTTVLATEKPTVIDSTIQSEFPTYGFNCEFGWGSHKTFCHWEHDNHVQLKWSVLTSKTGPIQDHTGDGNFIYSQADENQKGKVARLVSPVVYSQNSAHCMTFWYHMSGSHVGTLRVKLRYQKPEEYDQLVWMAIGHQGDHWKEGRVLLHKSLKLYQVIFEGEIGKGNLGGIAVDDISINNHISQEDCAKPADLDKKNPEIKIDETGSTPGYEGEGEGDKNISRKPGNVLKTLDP

Kd: 3.49 nM
Substance: chromogranin A fragment hCgA1-373 1-373 (from UniProt P10645)
